Results as given in patent US8202696B2, “Means for use in treating diseases correlated with or caused by non-physiological levels of microtubule-associated PP2Ac” (Max-Planck-Gessellschaft zur Forderung der Wissenschaften …, priority 2002, dated 2012).
Where no end group is shown, it is not given here.

Experiments:
[1] = target: T1, MID1/PP2A complex (Homo sapiens, UniProt P78318); assay: hFused phosphorylation in cells co-expressing hFused and B-Box1, Western blot; type: cell-based
T1 construct: endogenous in cells
T1 sequence (P78318 1-339): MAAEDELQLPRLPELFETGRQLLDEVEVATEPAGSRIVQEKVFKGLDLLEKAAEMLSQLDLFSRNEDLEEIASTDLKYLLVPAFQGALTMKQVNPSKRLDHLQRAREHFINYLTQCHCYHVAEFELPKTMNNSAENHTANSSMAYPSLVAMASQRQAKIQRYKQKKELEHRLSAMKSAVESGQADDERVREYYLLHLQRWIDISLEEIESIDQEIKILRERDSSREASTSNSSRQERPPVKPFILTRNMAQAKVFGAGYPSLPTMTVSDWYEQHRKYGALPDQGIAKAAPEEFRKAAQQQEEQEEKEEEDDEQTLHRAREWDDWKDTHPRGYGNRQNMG
Protocol: 8×10^5 cells were transfected with hFused-V5 (aa 1-1335) in presence and absence of MYC-B-BOX1 (aa 110-167 of the MID1 protein) using Qiagen polyfect transfection reagent according to the manufacturer's instructions. Cell pellets were resuspended in magic mix (48% urea, 15 mM Tris-HCl, 8.7% glycerin, 1% SDS, 0.004% Bromphenol Blue, 143 mM β-Mercaptoethanol). After sonification, cell lysate of cells expressing hFused and hFused together with B-Box1 was separated on a 6% SDS-gel (200 μg protein loaded in each lane), blotted on PVDF-membranes and incubated with anti-V5-antibody (1:3000). Secondary HRP-antimouse-antibody was diluted 1:2000.
A dominant-negative effect of the B-Box1-peptide leading to an inhibition of […] induced ubiquitination of microtubules-associated PP2A and resulting in a enrichment of microtubules-associated PP2A was shown previously.
Cell lysate of cells expressing only hFused (con) and hFused together with the B-Box1 (+B-Box1) was separated on an SDS-Page, blotted and incubated with an anti-V5-antibody. In order to stop all kinase and phosphatases directly after cell lysis, cells were lysed in an SDS- and urea-containing buffer.

[2] = target: T2, α4 (Homo sapiens, UniProt P78318); assay: Yeast two-hybrid interaction of MID1 constructs with α4; type: binding
T2 construct: expressed in transfected cells; host or cells: L40 yeast strain
T2 sequence (P78318 1-339): T1 sequence (P78318 1-339)
Protocol: Yeast two-hybrid screening. For yeast two-hybrid screening, we cloned full-length MID1 cDNA into the pBTM116 vector. We then cotransfected this with a human fetal brain cDNA Matchmaker library in the pGAD10 vector (Clontech) into the L40 yeast strain. We plated the transformants on synthetic medium lacking histidine, leucine and tryptophan (his^− leu^− trp^−) and containing 3-amino-1,2,4, triazole, and incubated the plates at 30° C. for 5 days. We assayed his-positive colonies for β-galactosidase activity with a filter assay^47. We isolated plasmid DNA from β-galactosidase-positive clones and cotransfected this again into L40 yeast with MID1-pBTM116 and controls. We selected plasmids that produced growth on selective plates only in combination with MID1-pBTM116, which were assumed to code for MID1 interactors, and sequenced them.
Activity of β-galactosidase in yeast liquid cultures. We assayed cells for β-galactosidase activity by the o-nitrophenyl-β-D-galactopyranoside (ONPG) method^47.
MID1 is a multidomain protein harboring a RING finger, two B-boxes, a coiled-coil region, a fibronectin type III domain and a B30.2 domain^3—all of which are candidate regions for specific protein-protein interactions. To clarify which domain specifically binds α4, we tested several deletion mutants of MID1 for interaction with α4 in the yeast two-hybrid system. […]

Ratio between phosphorylated and dephosphorylated hFused-form ([1]; FIG. 15c, control 10.3): 3
Ratio between phosphorylated and dephosphorylated hFused-form ([1]; FIG. 16c, reproduction, control 8.3): 3
Substance: B-Box1: peptide derived from the MID1 domain that is responsible for α4 binding (amino acids 108-165), expressed from plasmid (ANTMTSAEKVLCQFCDQDPAQDAVKTCVTCEVSYCDECLKATHPNKKPFTGHRLIEPI; cysteine pairing not given here; also: myc tag; UniProt O15344 108-165, looked up, fragment)
Interaction with α4 [2]: sufficient for a strong interaction with α4
